B1: 1206/1207 (antibody, V domains shown)
VH: EVQLLESGGGLVQPGGSLRLSCAASGFTFSGSSMSWVRQAPGKGLEWVSSIYYSGSGTYYADSVKGRFTISRDNSKNTLYLQMNSLRAEDTAVYYCARYGRNVHPYNLDYWGQGTLVTVSS
VL: DIQMTQSPSSLSASVGDRVTITCRASQSISSYLNWYQQKPGKAPKLLIYAASSLQSGVPSRFSGSGSGTDFTLTISSLQPEDFATYYCQQGYYYLPTFGQGTKLEIK
B2: 1212/1213 (antibody, V domains shown)
VH: EVQLLESGGGLVQPGGSLRLSCAASGFTFSSYAMSWVRQAPGKGLEWVSYISSYGGYTSYADSVKGRFTISRDNSKNTLYLQMNSLRAEDTAVYYCARYHSGVLDYWGQGTLVTVSS
VL: DIQMTQSPSSLSASVGDRVTITCRASQSISSYLNWYQQKPGKAPKLLIYAASSLQSGVPSRFSGSGSGTDFTLTISSLQPEDFATYYCQQYYYHYLLTFGQGTKLEIK

Molecular target: human/mouse 5T4 chimera aa173-420 (human; mouse) (UniProt Q13641)
Sequence (Q13641 other isoform, or with tags, fused parts or gaps mutant limits assumed, form in doubt): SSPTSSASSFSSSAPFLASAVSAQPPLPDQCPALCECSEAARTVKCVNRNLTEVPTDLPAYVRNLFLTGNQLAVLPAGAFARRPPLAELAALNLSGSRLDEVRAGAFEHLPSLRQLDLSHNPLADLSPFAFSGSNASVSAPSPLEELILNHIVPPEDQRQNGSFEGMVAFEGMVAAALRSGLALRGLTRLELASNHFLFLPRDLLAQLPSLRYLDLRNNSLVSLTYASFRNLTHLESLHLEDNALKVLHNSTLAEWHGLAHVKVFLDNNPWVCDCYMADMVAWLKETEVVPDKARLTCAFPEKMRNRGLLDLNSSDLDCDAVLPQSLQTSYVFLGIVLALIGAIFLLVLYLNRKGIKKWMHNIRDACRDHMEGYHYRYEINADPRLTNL
Experiment: flow cytometry, cells with human/mouse 5T4 chimera

| Binder | normalized % positive cells |
| --- | --- |
| B1 | 0.3 |
| B2 | -0.01 |
